Measured values reported in PMC10746540.

B1: PYR1*^MANDI, pBD two-hybrid fusion [not stated] / HAB1*, pACT two-hybrid fusion [not stated] (parent)
chain 1: MPSELTPEERSELKNSIAEFHTYQLDPGSCSSLHAQRIHAPPELVWSIVRRFDKPQTHRHFIKSCSVEQNFEMRVGCTRDIIVISGLPANTSTERLDILDDERRVTGASIIGGEHRLTNYKGVTTVHRFEKENRIWTVVLESYVVDMPEGNSEDDTRIVVDDVVKLNLQKLATVAEAMARNSGDGSGSQVT
chain 2: MEEMTPAVAMTLSLAANTMCESSPVEITQLKNVTDAADLLSDSENQSFCNGGTECTMEDVSELEEVGEQDLLKTLSDTRSGSSNVFDEDDVLSVVEDNSAVISEGLLVVDAGSELSLSNTAMEIDNGRVLATAIIVGESSIEQVPTAEVLIAGVNQDTNTSEVVIRLPDENSNHLVKGRSVYELDCIPLWGTVSIQGNASEMEAAFAVSPHFLKLPIKMLMGDHEGMSPSLTHLTGHFFGVYDGHGGHKVADYCRDRLHFALAEEIERIKDELCKRNTGEGRQVQWDKVFTSCFLTVDGEIEGKIGRAVVGSSDKVLEAVADETVGSTAVVALVCSSHIVVSNCGDSRAVLFRGKEAMPLSVDHKPDREDEYARIENAGGKVIQWQGARVFGRLAMSRSIGDRYLKPYVIPEPEVTFMPRSREDECLILASDGLWDVMNNQEVCEIARRRILMWHKKNGAPPLAERGKGIDPACQAAADYLSMLALQKGSKDNISIIVIDLKAQAKFKTRT

Variants of: B1
Assay: β-gal-based Y2H assay
Conditions: with HAB1*, ligand: azinphos-ethyl

screen value | Variant
0.01 µM | chain 1 MPSELTPEERSELKNSIAEFHTYQLDPGSCSSLHAQRIHAPPELVWSIVRRFDKPQTHRHFIKSCSVEQNFEMRVGCTRDIIWISGLPANTSTERLDILDDERRVTGASYIGGEHSLTNYKGVTTVHRFEKENRIWTVVLESYVVDMPEGNSEDDTRIVVDDVYKLNLQKLATVAEAMARNSGDGSGSQVT [chain 1 V83W I110Y R116S V164Y]
0.01 µM | chain 1 MPSELTPEERSELKNSIAEFHTYQLDPGSCSSLHAQRIHAPPELVWSIVRRFDKPQTHRHFIKSCSVEQNFEMRVGCTRDIIWISGLPANTSTERLDILDDERRVTGASIIGGEHSLTNYKGVTTVHRFEKENRIWTVVLESYVVDMPEGNSEDDTRIVVDDVVKLNLQKLATVAEAMARNSGDGSGSQVT [chain 1 V83W R116S]
0.25 µM | chain 1 MPSELTPEERSELKNSIAEFHTYQLDPGSCSSLHAQRIHAPPELVWSIVRRFDKPQTHRHFIKSCSVEQNFEMRVGCTRDIIWISGLPANTSTERLDILDDERRVTGASYIGGEHSLTNYKGVTTVHRFEKENRIWTVVLESYVVDMPEGNSEDDTRIVVDDVVKLNLQKLATVAEAMARNSGDGSGSQVT [chain 1 V83W I110Y R116S]

Same assay, conditions: with HAB1*, ligand: chlorofenvinphos

screen value | Variant
12.5 µM | chain 1 MPSELTPEERSELKNSIAEFHTYQLDPGSCSSLHAQRIHAPPELVWSIVRRFDKPQTHRHFIKSCSVEQNFEMRVGCTRDIIVISGLPANTSTERLDILDDERRVTGASIIGGEHRLTNYKQVTTVHRFEKENRIWTVVLESYVVDMPEGNSEDDTRIVVDDVVKLNLQKLATVAEAMARNSGDGSGSQVT [chain 1 G122Q]

Same assay, conditions: with HAB1*, ligand: azinphos

screen value | Variant
10 µM | chain 1 MPSELTPEERSELKNSIAEFHTYQLDPGSCSSLHAQRIHAPPELVWSIVRRFDKPQTHRHFIKSCSVEQNFEMRVGCTRDIIWISGLPANTSTERLDILDDERRVTGASIIGGEHSLTNYKGVTTVHRFEKENRIWTVVLESYVVDMPEGNSEDDTRIVVDDVVKLNLQKLATVAEAMARNSGDGSGSQVT [chain 1 V83W R116S]

Same assay, conditions: with HAB1*, ligand: malathion

screen value | Variant
100 µM | chain 1 MPSELTPEERSELKNSIAEFHTYQLDPGSCSSLHAQRIHAPPELVWSIVRRFDKPQTHRHFIKSCSVEQNFEMRVGCTRDIIAISGLPANTSTERLDILDDERRVTGASIIGGEHRLTNYKGVTTVHRFEKENRIWTVVLESYVVDMPEGNSEDDTRIVVDDVVKLNLQKLATVAEAMARNSGDGSGSQVT [chain 1 V83A]

Same assay, conditions: with HAB1*, ligand: disulfoton

screen value | Variant
100 µM | chain 1 MPSELTPEERSELKNSIAEFHTYQLDPGSCSSLHAQRIHAPPELVWSIVRRFDKPQTHRHFIKSCSVEQNFEMRVGCTRDIIVISGLPANTSTERLDILDDERRVTGASIIGGEHRLTNYKGVTTVHRFEKENRIWTVVLESYVVDVPEGNSEDDTRIVVDDVVKLNLQKLATVAEAMARNSGDGSGSQVT [chain 1 M147V]

Same assay, conditions: with HAB1*, ligand: pirimiphos

screen value | Variant
25 µM | chain 1 MPSELTPEERSELKNSIAEFHTYQLDPGSCSSLHAQRIHAPPELVWSIVRRFDKPQTHRHFIKSCSVEQNFEMRVGCTRDIIVISGLPANTMTERLDILDDERRVTGASIIGGEHRLTNYKGVTTVHRFEKENRIWTVVLESYVVDMPEGNSEDDTRIVVDDVVKLNLQKLATVAEAMARNSGDGSGSQVT [chain 1 S92M]

Same assay, conditions: with HAB1*, ligand: diazinon

screen value | Variant
100 µM | chain 1 MPSELTPEERSELKNSIAEFHTYQLDPGSCSSLHAQRIHAPPELVWSIVRRFDKPQTHRHFIKSCSVEQNFEMRVGCTRDIIVISGLPANTSTERLDILDDERRVTGVSIIGGEHRLTNYKGVTTVHRFEKENRIWTVVLESYVVDMPEGNSEDDTRIVVDDVVKLNLQKLATVAEAMARNSGDGSGSQVT [chain 1 A108V]
